Experiments:
[1] = biological target: GST-NI3-9, Hck-SH3 (VSWSPD) - polyGly linker - CD4 cytoplasmic tail (human) (UniProt P08631); test: SPR; GST-NI3-9 held on a CM5 chip via an anti-GST antibody; hexa-histidine tagged Nef 400-1000 nM flowed at 5 µl/min; 10 mM HEPES pH 8.0, 150 mM NaCl, 0.005% IGEPAL; 25 °C
[2] = biological target: HIV-1 NefSF2 wild type, full length (1-210), C210A (HIV-1 SF2) (UniProt P03407); test: ITC
[3] = biological target: HIV-1 NefSF2 (Δ1-44), C210A (HIV-1 SF2) (UniProt P03407); test: ITC
[4] = biological target: HIV-1 NefSF2 (Δ1-58), C210A (HIV-1 SF2) (UniProt P03407); test: ITC
[5] = biological target: HIV-1 NefSF2 (Δ1-27), C210A (HIV-1 SF2) (UniProt P03407); test: ITC
[6] = biological target: HIV-1 NefSF2 mutant (P76A, P79A, R81A), C210A (HIV-1 SF2) (UniProt P03407); test: ITC; Nef (40 to 50 µM) in the cell, inhibitor protein (400 to 500 µM) in the syringe; 10 mM Tris/HCl pH 8.0, 100 mM NaCl; 25 °C
[7] = biological target: HIV-1 NefSF2 wild type, full length (1-210), C210A (HIV-1 SF2) (UniProt P03407); test: ITC; Nef (40 to 50 µM) in the cell, GST-fused inhibitor protein (400 to 500 µM) in the syringe; 10 mM Tris/HCl pH 8.0, 100 mM NaCl; 15 °C
[8] = biological target: fluorescence-labelled NI3-3 (human) (UniProt P01730); test: other fluorescence titration

| Substance | Kd [2] [nM] | dH [2] [kcal/mol] | stoichiometry N [2] | also measured |
| --- | --- | --- | --- | --- |
| HIV-1 NefSF2 (Δ1-44), C210A (from UniProt P03407 45-210) (domain or fragment) | – | – | – | Kd [1]: 28 nM |
| GST-NI3-4, CD4 cytoplasmic tail (dileucine LL to AA) fused to Hck-SH3 (VSWSPD) (from UniProt P01730 419-458; P08631-1 78-138) (designed binder) | 544 | -8.55 | 0.97 | – |
| GST-NI3-8, CD4 cytoplasmic tail shortened to 23 residues fused N-terminally to Hck-SH3 (VSWSPD) (from UniProt P01730 419-458; P08631-1 78-138) (designed binder) | 107 | -8.2 | 0.93 | – |
| GST-NI3-1, CD4 cytoplasmic tail (37 residues) - five residue linker - Hck-SH3 (VSWSPD) (from UniProt P01730 419-458; P08631-1 78-138) (designed binder) | 84 | -8.51 | 1.09 | – |
| GST-NI3-13, Hck-SH3 (VSWSPD) - linker - CD4 cytoplasmic tail truncated before the cysteines (from UniProt P08631-1 79-138; P01730 419-458) (designed binder) | 41 | -7.04 | 0.98 | Kd [3]: 96 nM; dH [3]: -16.1 kcal/mol; stoichiometry N [3]: 1.06; Kd [4]: 149 nM; dH [4]: -13.8 kcal/mol; stoichiometry N [4]: 0.98; Kd [5]: 51 nM; dH [5]: -12.2 kcal/mol; stoichiometry N [5]: 1 |
| GST-NI3-10, Hck-SH3 (VSWSPD) - linker - CD4 cytoplasmic tail with the two cysteines mutated (from UniProt P08631-1 78-138; P01730 419-458) (designed binder) | 27 | -11.5 | 1.03 | – |
| GST-NI3-3, CD4 cytoplasmic tail (CQC to SQS) fused to Hck-SH3 (VSWSPD) (from UniProt P01730 419-458; P08631-1 78-138) (designed binder) | 88 | -8.64 | 1.12 | – |
| GST-NI3-5, wild type CD4 sequence attached with a glycine-serine-rich linker of 12 residues to Hck-SH3 (VSWSPD) (from UniProt P01730 419-458; P08631-1 78-138) (designed binder) | 64 | -8.22 | 1.06 | – |
| GST-NI3-9, Hck-SH3 (VSWSPD) - polyGly linker - CD4 cytoplasmic tail (from UniProt P08631-1;P01730) (designed binder) | – | – | – | Kd [6]: 1170 nM; dH [6]: -4.1 kcal/mol; stoichiometry N [6]: 0.85; Kd [7]: 26 nM; dH [7]: -11.4 kcal/mol; stoichiometry N [7]: 0.97 |
| HIV-1 NefSF2 wild type, full length (1-210), C210A (from UniProt P03407) (natural protein) | – | – | – | Kd [8]: 37 nM |
